Data published in publication PMC8391104, “Molecular mechanism of Mad1 kinetochore targeting by phosphorylated Bub1” (EMBO Reports, 2021).
Positions count from the first letter of the chain named. In names and notes the source's numbering stands. Where no end group is shown, it is not given here. [ ]: non-standard residue; d: D form. pT = C[C@@H](OP(=O)(O)O)[C@H](N)C(=O)O; pS = N[C@@H](COP(=O)(O)O)C(=O)O

B1: phosphorylated Bub1^CD1 peptide with an additional N-terminal tryptophan (peptide)
peptide: WKVQP[pS]P[pT]VHTKEALGFIMNMFQAPTS
notes: additional N-terminal tryptophan, added to confirm the peptide concentration; Bub1 conserved domain 1 (CD1), human, stated as residues 455-479; also called Bub1^CD1 peptide with an N-terminal tryptophan residue; source: synthetic peptide (Designer Bioscience UK, 95% purity)
B2: Mad1 C-terminal domain (Mad1^CTD) homodimer, residues 597-718 (domain or fragment, human, UniProt Q9Y6D9 597-718, looked up)
chain: SSKEVAELKKQVESAELKNQRLKEVFQTKIQEFRKACYTLTGYQIDITTENQYRLTSLYAEHPGDCLIFKATSPSGSKMQLLETEFSHTVGELIEVHLRRQDSIPAFLSSLTLELFSRQTVA
notes: the C-terminal residue is Ala718; For NMR the same construct was made 15N-labelled or 2H,13C,15N-labelled in M9 minimal medium; also called wild-type Mad1^CTD; WT Mad1^CTD; source: E. coli Rosetta 2 (DE3), purified (Strep-Tactin, TEV cleavage, Resource Q, Superdex 75); not shown: double Strep, N-terminal, cleaved; His6, N-terminal, cleaved
B3: Mad1^CTD F629A (domain or fragment, human, UniProt Q9Y6D9 597-718, looked up)
chain: B2 chain with F33A
notes: Poorly expressed, prone to aggregate; the authors suspect a disrupted Mad1 conformation; also called F629A mutant; source: E. coli Rosetta 2 (DE3), purified (Strep-Tactin, TEV cleavage, Resource Q, Superdex 75); not shown: double Strep, N-terminal, cleaved; His6, N-terminal, cleaved
B4: Mad1^CTD L618A (domain or fragment, human, UniProt Q9Y6D9 597-718, looked up)
chain: B2 chain with L22A
notes: Poorly expressed, aggregated easily, eluted broadly; the authors suspect mis-folding of the dimer; also called L618A mutant; source: E. coli Rosetta 2 (DE3), purified (Strep-Tactin, TEV cleavage, Resource Q, Superdex 75); not shown: double Strep, N-terminal, cleaved; His6, N-terminal, cleaved
B5: doubly phosphorylated Bub1^CD1 peptide (pSer459-pThr461) (peptide)
peptide: KVQP[pS]P[pT]VHTKEALGFIMNMFQAPTS
notes: Bub1 conserved domain 1 (CD1), human, stated as residues 455-479; also called pSer459-pThr461 peptide; source: synthetic peptide (Designer Bioscience UK, 95% purity)

Tests used:
[1] = molecular target: B2; assay: AUC; sedimentation equilibrium; 20 µM Mad1^CTD with 20 or 40 µM Bub1^CD1 peptide; 20 mM HEPES pH 7.5, 100 mM NaCl, 1 mM TCEP; 20°C; two-species model; conditions: both partners purified
[2] = molecular target: the molecule itself; assay: as above
[3] = molecular target: the molecule itself; assay: SEC-MALS; 100 µl of purified protein at 0.5-2.0 mg/ml on Superdex 200 Increase 10/300 GL, 0.5 ml/min
[4] = molecular target: T1, Mad1^CTD Q627A (human, UniProt Q9Y6D9 597-718, Q627A); assay: ITC; Bub1^CD1 peptide (0.3-1.5 mM) titrated into Mad1 (30-100 µM) in the cell; 20°C; 20 mM HEPES pH 7.5, 100 mM NaCl, 1 mM TCEP; single-site model; stoichiometry counted on dimeric Mad1^CTD; conditions: both partners purified
T1 construct: also called alanine substitution of Gln627; source: E. coli Rosetta 2 (DE3), purified (Strep-Tactin, TEV cleavage, Resource Q, Superdex 75); not shown: double Strep, N-terminal, cleaved; His6, N-terminal, cleaved
T1 sequence (looked up): B2 chain with Q31A

[5] = molecular target: T2, Mad1^CTD R630A (human, UniProt Q9Y6D9 597-718, R630A); assay: as above; conditions: both partners purified
T2 construct: also called Mad1 R630A mutant; source: E. coli Rosetta 2 (DE3), purified (Strep-Tactin, TEV cleavage, Resource Q, Superdex 75); not shown: double Strep, N-terminal, cleaved; His6, N-terminal, cleaved
T2 sequence (looked up): B2 chain with R34A

[6] = molecular target: T3, Mad1^CTD QRRI quadruple mutant (Q627A, R630A, I643A, R650A) (human, UniProt Q9Y6D9 597-718, Q627A | R630A | I643A | R650A); assay: as above; conditions: both partners purified
T3 construct: source: E. coli Rosetta 2 (DE3), purified (Strep-Tactin, TEV cleavage, Resource Q, Superdex 75); not shown: double Strep, N-terminal, cleaved; His6, N-terminal, cleaved
T3 sequence (looked up): B2 chain with Q31A, R34A, I47A, R54A

[7] = molecular target: T4, Mad1^CTD R617A (human, UniProt Q9Y6D9 597-718, R617A); assay: as above; conditions: both partners purified
T4 construct: also called R617A mutant of Mad1; source: E. coli Rosetta 2 (DE3), purified (Strep-Tactin, TEV cleavage, Resource Q, Superdex 75); not shown: double Strep, N-terminal, cleaved; His6, N-terminal, cleaved
T4 sequence (looked up): B2 chain with R21A

[8] = molecular target: T5, Mad1^CTD QRI triple mutant (Q627A, R650A, I643A) (human, UniProt Q9Y6D9 597-718, Q627A | I643A | R650A); assay: as above; conditions: both partners purified
T5 construct: also called triple alanine mutant; source: E. coli Rosetta 2 (DE3), purified (Strep-Tactin, TEV cleavage, Resource Q, Superdex 75); not shown: double Strep, N-terminal, cleaved; His6, N-terminal, cleaved
T5 sequence (looked up): B2 chain with Q31A, I47A, R54A

[9] = molecular target: T6, Mad1^CTD I643A (human, UniProt Q9Y6D9 597-718, I643A); assay: as above; conditions: both partners purified
T6 construct: also called alanine substitution of Ile643; source: E. coli Rosetta 2 (DE3), purified (Strep-Tactin, TEV cleavage, Resource Q, Superdex 75); not shown: double Strep, N-terminal, cleaved; His6, N-terminal, cleaved
T6 sequence (looked up): B2 chain with I47A

[10] = molecular target: T7, Mad1^CTD K619A (human, UniProt Q9Y6D9 597-718, Substituting Ala for Lys619); assay: as above; conditions: both partners purified
T7 construct: also called Ala for Lys619; source: E. coli Rosetta 2 (DE3), purified (Strep-Tactin, TEV cleavage, Resource Q, Superdex 75); not shown: double Strep, N-terminal, cleaved; His6, N-terminal, cleaved
T7 sequence (looked up): B2 chain with K23A

[11] = molecular target: T8, Mad1^CTD R650A (human, UniProt Q9Y6D9 597-718, R650A); assay: as above; conditions: both partners purified
T8 construct: also called alanine substitution of Arg650; source: E. coli Rosetta 2 (DE3), purified (Strep-Tactin, TEV cleavage, Resource Q, Superdex 75); not shown: double Strep, N-terminal, cleaved; His6, N-terminal, cleaved
T8 sequence (looked up): B2 chain with R54A

In the case of B1, the “stoichiometry N” value [1] is reported as 1 peptide per Mad1^CTD dimer.

For B2, the “stoichiometry N” value [2] was 2.

For B3, the “stoichiometry N” value [3] was 2.

B4 was tested, and the “stoichiometry N” value [3] was 2.

With B5 the binding result [4] was “binds”, the Kd [5] was 10 µM and the Kd [6] was 25 µM. For the same binder, the Kd [7] was 3000 µM, the Kd [8] was 14.5 µM and the binding result [9] was “binds”. The Kd [10] was 10 µM and the binding result [11] was “binds”.
